Test results taken from US20220010021A1 (Sanofi, published 2022).
Changes are numbered by the printed parent chain. In names and notes the source's numbering stands.

T1: human beta-Klotho (KLB) (human, UniProt Q86Z14 53-997)
T1 construct: Bought soluble protein; also called human KLB; ß-Klotho
T1 sequence (looked up): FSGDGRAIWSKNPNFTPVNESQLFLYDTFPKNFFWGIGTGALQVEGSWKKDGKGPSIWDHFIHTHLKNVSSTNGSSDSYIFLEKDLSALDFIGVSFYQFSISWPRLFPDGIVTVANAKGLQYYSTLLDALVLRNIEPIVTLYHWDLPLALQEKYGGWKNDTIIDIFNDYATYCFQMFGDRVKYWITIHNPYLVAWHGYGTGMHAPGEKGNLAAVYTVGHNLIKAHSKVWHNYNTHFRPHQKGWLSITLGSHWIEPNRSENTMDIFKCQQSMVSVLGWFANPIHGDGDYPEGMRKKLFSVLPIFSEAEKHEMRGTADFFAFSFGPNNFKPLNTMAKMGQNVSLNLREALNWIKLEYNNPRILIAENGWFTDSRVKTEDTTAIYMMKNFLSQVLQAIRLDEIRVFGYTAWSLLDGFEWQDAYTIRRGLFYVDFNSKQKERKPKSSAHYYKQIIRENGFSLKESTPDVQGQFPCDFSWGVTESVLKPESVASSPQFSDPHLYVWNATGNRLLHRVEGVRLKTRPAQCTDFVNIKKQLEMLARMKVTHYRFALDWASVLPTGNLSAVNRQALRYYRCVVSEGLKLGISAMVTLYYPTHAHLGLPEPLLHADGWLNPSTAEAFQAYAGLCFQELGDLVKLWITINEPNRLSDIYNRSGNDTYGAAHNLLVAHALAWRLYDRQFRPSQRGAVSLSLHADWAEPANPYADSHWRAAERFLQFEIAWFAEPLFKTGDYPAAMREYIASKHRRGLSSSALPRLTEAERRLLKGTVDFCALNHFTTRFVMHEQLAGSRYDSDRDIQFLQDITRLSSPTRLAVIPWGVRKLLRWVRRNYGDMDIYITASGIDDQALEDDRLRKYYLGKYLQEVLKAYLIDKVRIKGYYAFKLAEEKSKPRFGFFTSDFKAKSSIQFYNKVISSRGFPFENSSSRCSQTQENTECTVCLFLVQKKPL

B1: 16H7 light chain variant G28A (antibody, human IgG4 S228P, lambda, V domains shown)
VH: not shown
VL: SYVLTQPPSVSVAPGQTARITCGGNNIASESVHWYQQKPGQAPVLVVYDDSDRPSGIPERFSGSNSGNTATLTISRVEAGDEADYYCQVWDGNSDHVVFGGGTKLTVLG
B2: 16H7 light chain variant G28S (antibody, human IgG4 S228P, lambda, V domains shown)
VH: not shown
VL: B1 VL with A28S
B3: 16H7 light chain variant E30F (antibody, V domains shown)
VH: not shown
VL: B1 VL with A28G, E30F
notes: copies: 2 + 2
B4: 16H7 light chain variant G28K (antibody, human IgG4 S228P, lambda, V domains shown)
VH: not shown
VL: B1 VL with A28K
B5: 16H7 light chain variant E30M (antibody, V domains shown)
VH: not shown
VL: B1 VL with A28G, E30M
notes: copies: 2 + 2
B6: 16H7 light chain variant E30C (antibody, V domains shown)
VH: not shown
VL: B1 VL with A28G, E30C
notes: copies: 2 + 2
B7: 16H7 light chain variant G28L (antibody, human IgG4 S228P, lambda, V domains shown)
VH: not shown
VL: B1 VL with A28L
B8: 16H7 light chain variant G28C (antibody, human IgG4 S228P, lambda, V domains shown)
VH: not shown
VL: B1 VL with A28C
B9: 16H7 light chain variant G28E (antibody, human IgG4 S228P, lambda, V domains shown)
VH: not shown
VL: B1 VL with A28E
B10: 16H7 light chain variant I27F (antibody, V domains shown)
VH: not shown
VL: B1 VL with I27F, A28G
notes: copies: 2 + 2
B11: 16H7 light chain variant G28T (antibody, human IgG4 S228P, lambda, V domains shown)
VH: not shown
VL: B1 VL with A28T
B12: 16H7 light chain variant E30L (antibody, V domains shown)
VH: not shown
VL: B1 VL with A28G, E30L
notes: copies: 2 + 2
B13: 16H7 light chain variant G28W (antibody, human IgG4 S228P, lambda, V domains shown)
VH: not shown
VL: B1 VL with A28W
B14: 16H7 light chain variant E30I (antibody, human IgG4 S228P, lambda, V domains shown)
VH: not shown
VL: B1 VL with A28G, E30I
B15: 16H7 light chain variant G28F (antibody, human IgG4 S228P, lambda, V domains shown)
VH: not shown
VL: B1 VL with A28F
B16: 16H7 light chain variant E30A (antibody, V domains shown)
VH: not shown
VL: B1 VL with A28G, E30A
notes: copies: 2 + 2
B17: 16H7 light chain variant E30G (antibody, human IgG4 S228P, lambda, V domains shown)
VH: not shown
VL: B1 VL with A28G, E30G
B18: 16H7 light chain variant E30Y (antibody, V domains shown)
VH: not shown
VL: B1 VL with A28G, E30Y
notes: copies: 2 + 2
B19: 16H7 light chain variant E30N (antibody, V domains shown)
VH: not shown
VL: B1 VL with A28G, E30N
notes: copies: 2 + 2
B20: 16H7 light chain variant G28R (antibody, human IgG4 S228P, lambda, V domains shown)
VH: not shown
VL: B1 VL with A28R
B21: 16H7 light chain variant I27A (antibody, human IgG4 S228P, lambda, V domains shown)
VH: not shown
VL: B1 VL with I27A, A28G
B22: 16H7 light chain variant G28H (antibody, human IgG4 S228P, lambda, V domains shown)
VH: not shown
VL: B1 VL with A28H
B23: 16H7 light chain variant E30S (antibody, human IgG4 S228P, lambda, V domains shown)
VH: not shown
VL: B1 VL with A28G, E30S
B24: 16H7 light chain variant G28P (antibody, human IgG4 S228P, lambda, V domains shown)
VH: not shown
VL: B1 VL with A28P
B25: 16H7 light chain variant E30D (antibody, human IgG4 S228P, lambda, V domains shown)
VH: not shown
VL: B1 VL with A28G, E30D
B26: 16H7 light chain variant G28Y (antibody, human IgG4 S228P, lambda, V domains shown)
VH: not shown
VL: B1 VL with A28Y
B27: 16H7 light chain variant E30V (antibody, V domains shown)
VH: not shown
VL: B1 VL with A28G, E30V
notes: copies: 2 + 2
B28: 16H7 light chain variant G28D (antibody, human IgG4 S228P, lambda, V domains shown)
VH: not shown
VL: B1 VL with A28D
B29: 16H7 light chain variant G28I (antibody, human IgG4 S228P, lambda, V domains shown)
VH: not shown
VL: B1 VL with A28I
B30: 16H7 light chain variant G28N (antibody, human IgG4 S228P, lambda, V domains shown)
VH: not shown
VL: B1 VL with A28N
B31: 16H7 light chain variant E30R (antibody, V domains shown)
VH: not shown
VL: B1 VL with A28G, E30R
notes: copies: 2 + 2
B32: 16H7 light chain variant E30Q (antibody, V domains shown)
VH: not shown
VL: B1 VL with A28G, E30Q
notes: copies: 2 + 2
B33: 16H7 light chain variant I27C (antibody, human IgG4 S228P, lambda, V domains shown)
VH: not shown
VL: B1 VL with I27C, A28G
B34: 16H7 light chain variant E30T (antibody, V domains shown)
VH: not shown
VL: B1 VL with A28G, E30T
notes: copies: 2 + 2
B35: 16H7 variant with light chain substitution S94K (antibody, human IgG4 S228P, lambda, V domains shown)
VH: not shown
VL: B1 VL with A28G, S94K

The binders below were run against cell surface receptor composed of FGFR1c and co-receptor beta-Klotho (KLB) (human, UniProt P11362 22-822; Q86Z14 1-1044) (assay: cell-based or functional assay).
For Mean E max, Luciferase reporter gene assay in this document: reference of the scale not given here.

Sequence of cell surface receptor composed of FGFR1c and co-receptor beta-Klotho (KLB) (P11362 22-822, chain 1 of 2): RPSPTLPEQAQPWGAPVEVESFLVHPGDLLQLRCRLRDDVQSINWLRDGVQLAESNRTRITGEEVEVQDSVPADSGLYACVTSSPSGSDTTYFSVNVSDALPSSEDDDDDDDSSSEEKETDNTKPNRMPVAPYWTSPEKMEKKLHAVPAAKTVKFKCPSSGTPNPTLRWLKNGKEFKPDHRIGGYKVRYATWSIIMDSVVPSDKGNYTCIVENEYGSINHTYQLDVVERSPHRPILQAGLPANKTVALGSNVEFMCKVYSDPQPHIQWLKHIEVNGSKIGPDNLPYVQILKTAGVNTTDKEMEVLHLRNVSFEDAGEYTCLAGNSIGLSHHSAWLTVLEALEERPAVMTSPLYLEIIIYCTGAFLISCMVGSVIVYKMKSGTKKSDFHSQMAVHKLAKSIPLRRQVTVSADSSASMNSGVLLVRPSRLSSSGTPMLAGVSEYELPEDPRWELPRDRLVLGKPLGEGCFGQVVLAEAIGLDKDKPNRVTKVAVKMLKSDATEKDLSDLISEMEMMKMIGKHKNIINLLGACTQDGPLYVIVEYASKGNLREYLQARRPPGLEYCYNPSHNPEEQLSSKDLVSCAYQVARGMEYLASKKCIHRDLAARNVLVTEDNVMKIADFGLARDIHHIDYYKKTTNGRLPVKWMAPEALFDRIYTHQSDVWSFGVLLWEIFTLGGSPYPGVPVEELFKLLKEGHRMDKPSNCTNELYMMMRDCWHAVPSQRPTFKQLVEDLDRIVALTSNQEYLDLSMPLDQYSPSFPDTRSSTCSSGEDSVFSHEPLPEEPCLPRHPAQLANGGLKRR
Sequence of cell surface receptor composed of FGFR1c and co-receptor beta-Klotho (KLB) (Q86Z14 whole entry, chain 2 of 2): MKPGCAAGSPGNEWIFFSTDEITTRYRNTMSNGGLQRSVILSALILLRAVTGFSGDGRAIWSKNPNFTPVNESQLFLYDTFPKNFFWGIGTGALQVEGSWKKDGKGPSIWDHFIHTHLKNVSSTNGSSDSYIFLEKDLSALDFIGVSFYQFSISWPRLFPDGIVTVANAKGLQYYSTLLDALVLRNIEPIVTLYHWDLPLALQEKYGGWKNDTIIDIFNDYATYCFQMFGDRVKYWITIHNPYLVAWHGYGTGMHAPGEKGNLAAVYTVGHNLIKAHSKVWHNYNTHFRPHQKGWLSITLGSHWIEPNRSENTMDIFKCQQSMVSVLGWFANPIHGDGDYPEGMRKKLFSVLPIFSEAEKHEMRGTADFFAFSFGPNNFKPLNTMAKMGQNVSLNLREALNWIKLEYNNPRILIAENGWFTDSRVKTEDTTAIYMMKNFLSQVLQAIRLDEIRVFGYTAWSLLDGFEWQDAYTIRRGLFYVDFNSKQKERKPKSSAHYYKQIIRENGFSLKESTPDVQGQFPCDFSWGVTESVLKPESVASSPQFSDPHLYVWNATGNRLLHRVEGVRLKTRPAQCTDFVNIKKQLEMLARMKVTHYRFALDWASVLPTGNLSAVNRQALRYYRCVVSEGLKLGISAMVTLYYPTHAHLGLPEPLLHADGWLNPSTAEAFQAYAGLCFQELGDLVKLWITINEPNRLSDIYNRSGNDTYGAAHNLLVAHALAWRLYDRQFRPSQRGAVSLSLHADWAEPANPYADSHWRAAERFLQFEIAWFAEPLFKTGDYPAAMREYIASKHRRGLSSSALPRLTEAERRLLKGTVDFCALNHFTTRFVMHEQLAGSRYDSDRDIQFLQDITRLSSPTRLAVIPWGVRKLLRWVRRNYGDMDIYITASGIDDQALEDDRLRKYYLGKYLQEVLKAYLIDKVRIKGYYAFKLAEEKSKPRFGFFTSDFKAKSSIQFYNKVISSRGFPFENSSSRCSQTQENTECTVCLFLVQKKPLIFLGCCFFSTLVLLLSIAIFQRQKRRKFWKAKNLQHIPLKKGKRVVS

Point of comparison: B9, “Mean E max, Luciferase reporter gene assay” value 105%. Against it:
- B1 — lower, 92%
- B2 — higher, 109%
- B3 — lower, 92%
- B4 — higher, 108%
- B5 — lower, 100%
- B6 — lower, 92%
- B7 — lower, 104%
- B8 — lower, 100%
- B10 — lower, 104%
- B11 — higher, 110%
- B12 — lower, 96%
- B13 — lower, 96%
- B14 — higher, 108%
- B15 — lower, 102%
- B16 — lower, 103%
- B17 — lower, 94%
- B18 — higher, 107%
- B19 — higher, 110%
- B20 — lower, 102%
- B21 — higher, 107%
- B22 — higher, 108%
- B23 — higher, 114%
- B24 — lower, 103%
- B25 — lower, 96%
- B26 — higher, 109%
- B27 — higher, 108%
- B28 — higher, 107%
- B29 — higher, 112%
- B30 — higher, 113%
- B31 — lower, 96%
- B32 — lower, 99%
- B33 — higher, 106%
- B34 — lower, 100%

Point of comparison: B29, “Mean EC50, Luciferase reporter gene assay” value 0.132 nM. Against it:
- B1 — within 1.5-fold, 0.123 nM
- B2 — within 1.5-fold, 0.14 nM
- B3 — within 1.5-fold, 0.107 nM
- B4 — within 1.5-fold, 0.149 nM
- B5 — within 1.5-fold, 0.12 nM
- B6 — within 1.5-fold, 0.114 nM
- B7 — within 1.5-fold, 0.137 nM
- B8 — within 1.5-fold, 0.103 nM
- B9 — within 1.5-fold, 0.12 nM
- B10 — within 1.5-fold, 0.118 nM
- B11 — within 1.5-fold, 0.187 nM
- B12 — within 1.5-fold, 0.16 nM
- B13 — within 1.5-fold, 0.142 nM
- B14 — within 1.5-fold, 0.136 nM
- B15 — within 1.5-fold, 0.124 nM
- B16 — within 1.5-fold, 0.146 nM
- B17 — within 1.5-fold, 0.138 nM
- B18 — within 1.5-fold, 0.152 nM
- B19 — within 1.5-fold, 0.163 nM
- B20 — within 1.5-fold, 0.138 nM
- B21 — within 1.5-fold, 0.111 nM
- B22 — within 1.5-fold, 0.165 nM
- B23 — the same, 0.132 nM
- B24 — the same, 0.132 nM
- B25 — within 1.5-fold, 0.118 nM
- B26 — within 1.5-fold, 0.131 nM
- B27 — within 1.5-fold, 0.14 nM
- B28 — within 1.5-fold, 0.126 nM
- B30 — within 1.5-fold, 0.111 nM
- B31 — within 1.5-fold, 0.162 nM
- B32 — within 1.5-fold, 0.123 nM
- B33 — within 1.5-fold, 0.16 nM
- B34 — within 1.5-fold, 0.105 nM

These binders were tested against cell surface receptor composed of the tyrosine kinase receptor FGFR1c and co-receptor beta-Klotho (KLB) (human, UniProt P11362 22-822; Q86Z14 1-1044) (assay: cell-based or functional assay).
Sequence of cell surface receptor composed of the tyrosine kinase receptor FGFR1c and co-receptor beta-Klotho (KLB) (P11362 22-822, chain 1 of 2): as the sequence (P11362 22-822, chain 1 of 2) above
Sequence of cell surface receptor composed of the tyrosine kinase receptor FGFR1c and co-receptor beta-Klotho (KLB) (Q86Z14 whole entry, chain 2 of 2): as the sequence (Q86Z14 whole entry, chain 2 of 2) above

In the case of B35, the “Mean E max, Luciferase gene reporter assay” value is reported as 104%.

With B35 the “Mean EC50, Luciferase gene reporter assay” value was 0.185 nM.

What follows are binders tested against T1, human beta-Klotho (KLB) (assay: BLI off-rate screen, supernatant;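 also: expression supernatants tested at 25 µg/mL, dissociation followed for 1800 s in D-PBS with 0.1% BSA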).

Point of comparison: B33, koff 3.8e-05 s⁻¹. Against it:
- B1 — within 1.5-fold, 3.3e-05 s⁻¹
- B2 — 17-fold lower, 2.3e-06 s⁻¹
- B3 — 2.6-fold higher, 9.7e-05 s⁻¹
- B4 — within 1.5-fold, 3.3e-05 s⁻¹
- B5 — the same, 3.8e-05 s⁻¹
- B6 — 2.5-fold higher, 9.6e-05 s⁻¹
- B7 — 6.2-fold lower, 6.1e-06 s⁻¹
- B8 — 4.2-fold lower, 9.1e-06 s⁻¹
- B9 — 2.1-fold lower, 1.8e-05 s⁻¹
- B10 — 1.9-fold lower, 2e-05 s⁻¹
- B11 — 25-fold lower, 1.5e-06 s⁻¹
- B12 — 1.8-fold higher, 6.9e-05 s⁻¹
- B13 — within 1.5-fold, 3.7e-05 s⁻¹
- B14 — 1.9-fold higher, 7.3e-05 s⁻¹
- B15 — within 1.5-fold, 3.9e-05 s⁻¹
- B16 — within 1.5-fold, 5.1e-05 s⁻¹
- B17 — within 1.5-fold, 4.8e-05 s⁻¹
- B18 — 2-fold higher, 7.6e-05 s⁻¹
- B19 — 1.6-fold lower, 2.4e-05 s⁻¹
- B20 — 2.2-fold higher, 8.5e-05 s⁻¹
- B21 — within 1.5-fold, 5.3e-05 s⁻¹
- B22 — 2.1-fold lower, 1.8e-05 s⁻¹
- B23 — 2.4-fold lower, 1.6e-05 s⁻¹
- B24 — 1.6-fold higher, 6.2e-05 s⁻¹
- B25 — within 1.5-fold, 3.6e-05 s⁻¹
- B26 — within 1.5-fold, 5.3e-05 s⁻¹
- B27 — within 1.5-fold, 4.1e-05 s⁻¹
- B28 — within 1.5-fold, 4e-05 s⁻¹
- B29 — within 1.5-fold, 3.3e-05 s⁻¹
- B30 — 2.1-fold lower, 1.8e-05 s⁻¹
- B31 — within 1.5-fold, 3.7e-05 s⁻¹
- B32 — 380-fold lower, 1e-07 s⁻¹
- B34 — within 1.5-fold, 4.9e-05 s⁻¹
